Source: the domain aggregation screens of Martell et al. (2025)

assay: soluble fraction after stress (log2 fold change); higher = more stays soluble; pooled small domains, quantitative proteomics; conditions: stress: pH 4
Procedure, shortened: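 Following acid stress at pH 4, the amount of each small protein domain still soluble was measured in pooled custom libraries by high-throughput quantitative proteomics. Its fold change, on a log2 scale, is higher when more of the domain stayed soluble. This fold change is taken as a measure of aggregation propensity.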

| Sequence | soluble fraction (log2) |
| --- | --- |
| HMGETPEILRDWEAAQNAVNDMLSKYAPGGYMGKIIYPLLTPLKERLEAGERTPDLYNAIVEAT | -0.763 |
| HMNFTVTDKNAVLYSNDNTKVYESPDINSKLVTTIAKDLPVNVTGITSNGWFRISLEGTYYVPGNGLEQR | -0.251 |
| HMSMDYYNILGVNRNASTGEIKKAYKRASMQHHPDRGGNSDEFIKVQQAYDTLSDNHKRQAYDNP | 0.0506 |
| HMAAGKGVTTGSVRLRKGSNTDSAIIATLKKDTELILYGKKDGWYSVKTSDGTEGFVSSKYVKVTEAY | -0.297 |
| HMNRPYETLFTGLTTDEASAIVGKLEEYGAADYKIEGDTIKVPAAQEPDLKAKLLLDGYPKS | 0.0842 |
| HMGGVIEDDRGQWAHPGEVTKINSNNITMKGVDFPVLGISDTGDKKMMQPGKDYKFDGNSVTEYPMA | -0.5 |
| HMSTIAAMADPRAWALEMLGFPPGTVKPSKREIQVRFRESLRDVHPDHGGDSRTASASINDLSEARRVLLS | 0.0192 |
| HMASFASRAEEVMTKLLANGQPRIKEVADAMHLSSRTLQRRLEREGVSFAELLDRLRKRLAHDMLAHS | ≥ 0.43 |
| HMGPFYFDQDGKAYSGLLNRNGEILYFADPFNAAVKNTTKTIDGKTYTFNQNGRATSIDGIPLEPP | -0.17 |
| HMNNPLPDLLKYFRKKKHLTQEQVAKQLSVSRASYASYETGRIIPGMQHIMELSRILEHDFLFAYTLAVQ | -0.446 |
| HMYSDQRMEIFLEHLPDFIEQLSHKHVTRQMVWEDYRMIYPDGYGKSQFFFHLAQNLKAQKP | -0.489 |
| HMFDKNKPVVVEGENAEVALKKVSKYFNVPTEKLDYTLLGQKSAGLLGIGSKVYQFKVWLKREIP | ≥ 0.43 |
| HMPVFYATNRQKTTIHNLKRKKGLDDDAYRATIYSFTHGRTDSSKYMYKYEAAELIQKWLDPE | -0.157 |
| HMQELKWERNYKLVQDYIKQYGVLPSKNTKYANVSIGRWLTNQHELVKEDNLAPERFEKIKELDT | 0.303 |
| HMRQPAAVEYSTFLDWVHASQVERVVFEGDTIRGVRVTGEGFVTYSPETDNTALIGELKKSRVQISATAP | 0.311 |
| HMNKDWQDEVALQRYTMITPLLSEDLDNAKRIAMREKIAQDNLTTARSLYRYEKAYRENGFQGLRPTD | -0.262 |
| HMGLSAALKARLREVINEMAKSGAQPKLREWALAEGIGNFAKPETPEAAEAVIAKAQELLAEA | 0.429 |
| HMPPDIKVVGVTVASDPRASFAMLSSNGKTLSYRVNDLIEGTEYHLIKVEAAAITIATAGGQSTQIAF | -0.156 |
| HMTASTLSYSKFNEQVVQNQVRKVTFQGEQVKGELISGQTFTTTVPANDTTLWPMLKAHNVDTAVTAA | 0.0376 |
| HMILPKFNQLLGQMGENIKLARKRRKLTAVQVSERAGIARSTLYLIEKGDASVSLGAYFNVLRVLG | -0.214 |
| HMAYLTVPAVIAKDTKKSIQLLESKGFEVVIQDSIYTDTLARGTVIKQLPDPNATVKINRTVYLTVNRYTP | -0.369 |
| HMLVKKYTEEETGRQAELSKQLAELSKAYYNTGNSMVDDAVFDKLRDELSSLEKESGFAYDISPNVS | -0.276 |
| HMADVLLKHGSSGDYVWDLQYRLKTLSLFDQEMTGYFGPHTRQAVVNFQRKYGLPADGVVGPATWRALRK | -0.551 |
| HMQQLTQRELTLLRLLANGYNNRQIAEQLQLAESTVKNNLSALFQKIGVRDRTQAVLFAISQGLVP | -0.462 |
| HMEQAMIVILKENPDRRQLEFLTGWLQKQQIGIHISEGAHQTVLGLVGDATRLDIDMLKQMEIVEDVKRVQ | -0.953 |
| HMSEKYPPIDWNNIKTGQSVLIKDINQVVSLTKLPDSKGFAEVQMGLIKTKIKAEKLAATDKKPNK | -0.0179 |
| HMPVSDLQSALRNTLSKGDATDPAFRQRVYRAAMDALERATGSESDPQRRSEQKQRLIAVIRDMEASYRR | 0.101 |
| HMSNEDAYIKLRNGFLATLSEADLLLFTLREEGKTQKEIADQLGYKTHSAVSKRLQTMRGQFEGYLKTQ | -0.818 |
| HMGIIYGKNPVLEAISSGTTINKIYAQTSNKEIDSVIKEALKRKIIVVNTDKQKLDKMIDGKNSQGIIASI | 0.36 |
| HMVKTIINGEEKDFDAQDFQTFGDFLKKVIPEGQILKSLKINSKDVPIAFIDELKSATVDENITIEMELA | 0.315 |
